Data on 1 molecule can be found in CN107417789A (INST RES BIOMEDICINE, dated 2017).

This assay addresses T1, X-31 (H3N2) 菠萝蛋白酶释放的HA (BHA) (influenza A virus X-31 (H3N2), UniProt P03437 17-344; P03437 346-520).
T1 construct: domain: 菠萝蛋白酶释放的HA (BHA)
Nature of the assay: complex formation and size exclusion chromatography. In general terms: In gel filtration, larger molecules generally elute earlier.

B1: FI6变体3 Fab片段 (Fab, V domains shown)
VH: QVQLVESGGGVVQPGRSLRLSCAASGFTFSTYAMHWVRQAPGKGLEWVAVISYDANYKYYADSVKGRFTISRDNSKNTLYLQMNSLRAEDTAVYYCAKDSQLRSLLYFEWLSQGYFDYWGQGTLVTVSS
VL: not shown
Regarding B1, the binding result was “binds”.
